T1: FcγRIIa H (FcγRIIa, allotype with His at position 131), extracellular domain with C-terminal His tag (human, UniProt P12318 34-217)
T1 construct: extracellular domain; also called FcgRIIa H; 2aH; not shown: His tag at the C terminus
T1 sequence (looked up): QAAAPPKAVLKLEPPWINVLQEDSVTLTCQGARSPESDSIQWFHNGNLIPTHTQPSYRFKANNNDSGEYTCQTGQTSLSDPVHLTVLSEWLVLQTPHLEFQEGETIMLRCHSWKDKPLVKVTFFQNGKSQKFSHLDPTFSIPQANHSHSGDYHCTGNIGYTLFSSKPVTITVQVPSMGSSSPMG

T2: FcγRIIb, extracellular domain with C-terminal His tag (human, UniProt P31994 43-217)
T2 construct: extracellular domain; also called FcgRIIb; 2b; not shown: His tag at the C terminus
T2 sequence (looked up): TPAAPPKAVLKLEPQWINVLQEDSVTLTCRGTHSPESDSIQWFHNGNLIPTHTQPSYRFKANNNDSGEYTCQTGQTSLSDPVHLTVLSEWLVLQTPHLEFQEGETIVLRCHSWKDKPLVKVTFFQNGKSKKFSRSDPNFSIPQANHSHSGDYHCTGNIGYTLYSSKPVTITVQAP


Tests used:
[1] = target: T1, FcγRIIa H (FcγRIIa, allotype with His …); assay: SPR (Biacore); He/Con_2aH divided by He/Con_2b (FcγRIIb)
[2] = target: T1, FcγRIIa H (FcγRIIa, allotype with His …); assay: SPR (Biacore), relative binding vs GpH7-A5/GpH7-B3/GpL16-k0
[3] = target: T2, FcγRIIb, extracellular domain with …; assay: as above

Binder | He_2aH/2b (IIaH/IIb) [1] [ratio] | He/Con_2aH [2] | He/Con_2b [3]
GpH7-A5/GpH7-B3 variant I332_10E/GpL16-k0 (antibody, human IgG1, kappa, Heterodimerized anti-glypican-3 IgG1; mutation in one H chain only; also called He Ab) heavy 1: not shown heavy 2: not shown light: DIVMTQSPLSLPVTPGEPASISCQASESLVHSNRNTYLHWYLQKPGQSPQLLIYKVSNRFSGVPDRFSGSGSGTDFTLKISRVEAEDVGVYYCSQNTHVPPTFGQGTKVEIERTVAAPSVFIFPPSDEQLKSGTASVVCLLNNFYPREAKVQWKVDNALQSGNSQESVTEQDSKDSTYSLSSTLTLSKADYEKHKVYACEVTHQGLSSPVTKSFNRGEC | 0.76 | 108 % of HeCon Ab (=100) | 142 % of HeCon Ab (=100)
GpH7-A5/GpH7-B3 variant L328_05P/GpL16-k0 (antibody, human IgG1, kappa, Heterodimerized anti-glypican-3 IgG1; mutation in one H chain only; also called He Ab) heavy 1: not shown heavy 2: not shown light: DIVMTQSPLSLPVTPGEPASISCQASESLVHSNRNTYLHWYLQKPGQSPQLLIYKVSNRFSGVPDRFSGSGSGTDFTLKISRVEAEDVGVYYCSQNTHVPPTFGQGTKVEIERTVAAPSVFIFPPSDEQLKSGTASVVCLLNNFYPREAKVQWKVDNALQSGNSQESVTEQDSKDSTYSLSSTLTLSKADYEKHKVYACEVTHQGLSSPVTKSFNRGEC | 0.7 | 45.4 % of HeCon Ab (=100) | 65.1 % of HeCon Ab (=100)
GpH7-A5/GpH7-B3 variant L328_10E/GpL16-k0 (antibody, human IgG1, kappa, Heterodimerized anti-glypican-3 IgG1; mutation in one H chain only; also called He Ab) heavy 1: not shown heavy 2: not shown light: DIVMTQSPLSLPVTPGEPASISCQASESLVHSNRNTYLHWYLQKPGQSPQLLIYKVSNRFSGVPDRFSGSGSGTDFTLKISRVEAEDVGVYYCSQNTHVPPTFGQGTKVEIERTVAAPSVFIFPPSDEQLKSGTASVVCLLNNFYPREAKVQWKVDNALQSGNSQESVTEQDSKDSTYSLSSTLTLSKADYEKHKVYACEVTHQGLSSPVTKSFNRGEC | 0.32 | 55.5 % of HeCon Ab (=100) | 172 % of HeCon Ab (=100)
GpH7-A5/GpH7-B3 variant L328_06M/GpL16-k0 (antibody, human IgG1, kappa, Heterodimerized anti-glypican-3 IgG1; mutation in one H chain only; also called He Ab) heavy 1: not shown heavy 2: not shown light: DIVMTQSPLSLPVTPGEPASISCQASESLVHSNRNTYLHWYLQKPGQSPQLLIYKVSNRFSGVPDRFSGSGSGTDFTLKISRVEAEDVGVYYCSQNTHVPPTFGQGTKVEIERTVAAPSVFIFPPSDEQLKSGTASVVCLLNNFYPREAKVQWKVDNALQSGNSQESVTEQDSKDSTYSLSSTLTLSKADYEKHKVYACEVTHQGLSSPVTKSFNRGEC | 0.73 | 104 % of HeCon Ab (=100) | 142 % of HeCon Ab (=100)
GpH7-A5/GpH7-B3 variant A327_18N/GpL16-k0 (antibody, human IgG1, kappa, Heterodimerized anti-glypican-3 IgG1; mutation in one H chain only; also called He Ab) heavy 1: not shown heavy 2: not shown light: DIVMTQSPLSLPVTPGEPASISCQASESLVHSNRNTYLHWYLQKPGQSPQLLIYKVSNRFSGVPDRFSGSGSGTDFTLKISRVEAEDVGVYYCSQNTHVPPTFGQGTKVEIERTVAAPSVFIFPPSDEQLKSGTASVVCLLNNFYPREAKVQWKVDNALQSGNSQESVTEQDSKDSTYSLSSTLTLSKADYEKHKVYACEVTHQGLSSPVTKSFNRGEC | 0.59 | 66.8 % of HeCon Ab (=100) | 113 % of HeCon Ab (=100)
GpH7-A5/GpH7-B3 variant L328_20W/GpL16-k0 (antibody, human IgG1, kappa, Heterodimerized anti-glypican-3 IgG1; mutation in one H chain only; also called He Ab) heavy 1: not shown heavy 2: not shown light: DIVMTQSPLSLPVTPGEPASISCQASESLVHSNRNTYLHWYLQKPGQSPQLLIYKVSNRFSGVPDRFSGSGSGTDFTLKISRVEAEDVGVYYCSQNTHVPPTFGQGTKVEIERTVAAPSVFIFPPSDEQLKSGTASVVCLLNNFYPREAKVQWKVDNALQSGNSQESVTEQDSKDSTYSLSSTLTLSKADYEKHKVYACEVTHQGLSSPVTKSFNRGEC | 0.48 | 113 % of HeCon Ab (=100) | 235 % of HeCon Ab (=100)
GpH7-A5/GpH7-B3 variant A327_08L/GpL16-k0 (antibody, human IgG1, kappa, Heterodimerized anti-glypican-3 IgG1; mutation in one H chain only; also called He Ab) heavy 1: not shown heavy 2: not shown light: DIVMTQSPLSLPVTPGEPASISCQASESLVHSNRNTYLHWYLQKPGQSPQLLIYKVSNRFSGVPDRFSGSGSGTDFTLKISRVEAEDVGVYYCSQNTHVPPTFGQGTKVEIERTVAAPSVFIFPPSDEQLKSGTASVVCLLNNFYPREAKVQWKVDNALQSGNSQESVTEQDSKDSTYSLSSTLTLSKADYEKHKVYACEVTHQGLSSPVTKSFNRGEC | 0.74 | 46.9 % of HeCon Ab (=100) | 63.1 % of HeCon Ab (=100)
GpH7-A5/GpH7-B3 variant L328_15Y/GpL16-k0 (antibody, human IgG1, kappa, Heterodimerized anti-glypican-3 IgG1; mutation in one H chain only; also called He Ab) heavy 1: not shown heavy 2: not shown light: DIVMTQSPLSLPVTPGEPASISCQASESLVHSNRNTYLHWYLQKPGQSPQLLIYKVSNRFSGVPDRFSGSGSGTDFTLKISRVEAEDVGVYYCSQNTHVPPTFGQGTKVEIERTVAAPSVFIFPPSDEQLKSGTASVVCLLNNFYPREAKVQWKVDNALQSGNSQESVTEQDSKDSTYSLSSTLTLSKADYEKHKVYACEVTHQGLSSPVTKSFNRGEC | 0.47 | 90 % of HeCon Ab (=100) | 193 % of HeCon Ab (=100)
GpH7-A5/GpH7-B3 variant L328_07I/GpL16-k0 (antibody, human IgG1, kappa, Heterodimerized anti-glypican-3 IgG1; mutation in one H chain only; also called He Ab) heavy 1: not shown heavy 2: not shown light: DIVMTQSPLSLPVTPGEPASISCQASESLVHSNRNTYLHWYLQKPGQSPQLLIYKVSNRFSGVPDRFSGSGSGTDFTLKISRVEAEDVGVYYCSQNTHVPPTFGQGTKVEIERTVAAPSVFIFPPSDEQLKSGTASVVCLLNNFYPREAKVQWKVDNALQSGNSQESVTEQDSKDSTYSLSSTLTLSKADYEKHKVYACEVTHQGLSSPVTKSFNRGEC | 0.59 | 93.9 % of HeCon Ab (=100) | 160 % of HeCon Ab (=100)

Source: patent publication US20150344570A1 (published 2015)
